{
  "source": "patent US5457182A",
  "about": "(Merck & Co., Inc., priority 1994, dated 1995)",
  "key": {"[1]": {"assay": "Peptidyl-prolyl cis-trans isomerase (PPIase) activity", "format": "biochemical", "settings": "homogeneous FKBP12 vs partially pure (about 25%) FKBP12.6", "protocol": "PPIase assays were performed as described (Fischer, G., et al., Nature, 337,476-478 (1989)) with the following changes: the peptide substrate used was N-succinyl-Ala-Leu-Pro-Phe-p-nitroanilide (BACHEM, California) at a final concentration of 72 μM and chymotrypsin (Sigma) was present in the assay at a concentration of 6 μM. The total reaction volume was 1.5 ml. The release of p-nitroanilide by chymotrypsin was measured by following the increase in absorbance at 405 nm on a Beckman DU68 spectrophotometer. After an initial rapid rise in absorbance due to hydrolysis of the trans peptide, the slow secondary increase in absorbance which reflects the cis-to-trans conversion of the peptide by the PPIase was measured at 3 sec intervals out to 1.5 min. The data were fitted to a simple first-order rate equation and the first-order rate constant, k (s^-1), calculated."}, "[2]": {"target": "calcineurin", "assay": "Calcineurin phosphatase assay", "format": "biochemical, bovine", "settings": "in presence of FK-506, CaN, CaM, Ca^2+, Mg^2+; read-out: IC50 for inhibition of CaN", "protocol": "For a side-by-side comparison, FKBP12 was also tested for its ability to inhibit calcineurin in the presence of drug.\nThe calcineurin phosphatase assay is a modified version of previous assays (Liu, J., et al., Cell, 66, 807-815 (1991); Manalan, A., et al., Proc. Natl. Acad. Sci. U.S.A., 80, 4291-4295 (1983)). Reaction mixtures ([…] contained: 40 mM Tris (pH 8), 100 mM NaCl, 6 mM Mg(OAc)2, 0.1 mM CaCl2, 0.1 mg/ml BSA, 0.5 mM dithiothreitol, 190 nM bovine brain calmodulin (Sigma), 3 nM bovine brain calcineurin (Sigma), and 40 μM [^33 P]RII peptide (Peptides International) (600 cpm/pmole). Reaction mixtures were pre-incubated for 30 min at 30° C. prior to addition of the labeled peptide. The reaction was initiated by addition of the peptide and the dephosphorylation reaction was allowed to proceed for 10 min at 30° C. The reaction was terminated by the addition of 0.5 ml of 5% trichloroacetic acid containing 100 mM sodium phosphate (stop buffer) and applied to a 0.5 ml Dowex 50W-X8, H^+ column. Free [^33 P]phosphate was eluted from the column with 0.5 ml of stop buffer followed by 0.5 ml of water."}, "[3]": {"tested_on": "calcineurin", "assay": "FKBP.FK-506.CaN complex-formation assay (size-exclusion column, Western analysis)", "format": "binding, bovine", "settings": "partially purified FKBPs, CaM, Ca^2+, Mg^2+ and FK-506", "protocol": "In the modified assay, samples were assayed by Western analysis using the anti-C-terminal peptide antibody in order to identify FKBP12 and FKBP12.6 in various chromatographic fractions.\nIn the first experiment, FKBP12 and FKBP12.6 were partially purified by preparative HPLC gel filtration chromatography on a Bio-Sil TSK-125 column. These partially purified FKBPs (containing both FKBP12 and FKBP12.6) are devoid of CaN which separates completely from them on this column. FKBP12 and FKBP12.6 co-elute at fractions 26 and 27 on the analytical sizing column (G2000SW) used in this experiment. […] Because this crude FKBP material also contains FKBP12.6, it can also be observed migrating slightly above FKBP12 in FIG. 4A.\nTo more carefully examine the requirements for FKBP12.6 complex formation with CaN, experiments were conducted using purified FKBP12.6.\nThe incubation buffer contained 20 mM Tris (pH 7.5), 100 mM NaCl, 6 mM MgCl2, 0.1 mM CaCl2, 0.1 mg/ml BSA, and 0.5 mM dithiothreitol. The incubation reaction was chromatographed on a Bio-Sil SEC400 HPLC column (Bio-Rad) at a flow rate of 1 ml/min and 1 min fractions were collected. The chromatography buffer was the same as the incubation buffer except that BSA was omitted. 30 μl of fractions 19-29 were subjected to electrophoresis on a 16% Novex Tris-Glycine gel and Western analysis was performed as described above."}},
  "data": [
    {"molecule": "FKBP12: abundant, cytosolic 11.8 kDa protein termed the FK-506 binding protein; bovine sequence SEQ ID NO:2 (protein) GVQVETISPGDGRTFPKRGQTCVVHYTGMLEDGKKFDSSRDRNKPFKFVLGKQEVIRGWEEGVAQMSVGQRAKLTISPDYAYGATGHPGIIPPNATLIFDVELLKLE", "values": [
      {"measurement": "slope of PPIase rate relative to FKBP12.6", "setting": "[1]", "value": 4.1, "unit": "fold"},
      {"measurement": "IC50", "setting": "[2]", "value": 9.9, "unit": "nM"},
      {"measurement": "complex formation with CaN", "setting": "[3]", "value": "a significant fraction of FKBP12 is in the FKBP12.FK-506-CaN complex"}
    ]}
  ]
}
